Measured values taken from paper PMC3359990.

Biological target: TbRIF5-BB2-HA (T. brucei)
Test: co-IP; cytoplasmic extracts of cells expressing TbDCL1-BB2-FLAG and TbRIF5-BB2-HA; immunoprecipitation with anti-FLAG or anti-HA antibody; Western blot for the common BB2 epitope

percent of TbDCL1 in the precipitate: 50%
Substance: TbDCL1-BB2-FLAG (enzyme)
